The record followed here is publication doi:10.1101/2022.07.11.499577 (bioRxiv, 2022).

To fix the notation:
B2: Eaf1 (natural protein)
chain: MSSRPSSAVPNSASLSEDQSSDRSKFPKADDLIDERDRKLTELYCVSRLNQLLELTDENKLRKEIDAFLKKNDIRRGIRFDEASLPKLLHTAATPITKKKLKDVNLINVPNQRLSDSKMSRELPENSENVSVKSESHFVPSHDNSIRENMMDSLRPAEKTGGMWNKRPLESTMGGEEERHEKRQKMQSQSLESSNNSEMASLPISPRPPVPNALAHYTYYENIEYPPADPTEVQPAVKFKDPLIKNIMAKEIDTSDHYNENNVDALETVFLLMNDYIPSKIPQALPLAELKYMSQTLPLINLIPRAHKALTTNIINNALNEARITVVGSRIEELRRLGLWSLRQPKRFIDPWKQHNTHQNILLEEAKWMQADFKEGHKYKVAICTAMAQAIKDYWTYGEICCVKRKTLLPGKENKLSDDGRISEKSGRPSDTSRNDSDISIAGKDDIGIIANVDDITEKESAAANDNDENGKNEAGAKSDFDFADGLLSQEGAHDQIISSIDTKLLLKKPSSSSEVVLIQHEVAASSALIETEESKKELAPPFKLSIFVDELNTFEKTLIQDLPLYNGINEERPKKDDSLPFIPISKSVVSLDDNGFYKLLERQLIDEEPSISQLSKRRGMFYGNRRNHYLRPPAVPSLRYLQNRTPTIWLSEDDQELVKNINTYGYNWELISAHMTHRLTYSYLSNIERRTPWQCFERFVQLNERFNFSDLKGPRAHSAQQWLIEAHKFQQRQNRRISPLGVNTESIQRGHRRLRWASMFEAIRKCMKKRENTPRPNPTQPRKPLDCKNMKVPTPAEMSLLKAQRDEALRRDIQLRRTVKNRLQQRQQQSQQAHSSRAQSPIPSNGKSSSNLARNGQASAPRPNQKQYTEQDIIESYSRKLLEQKPDIGPEMALKAAKNYYRTLREQQQQLKQHQIQQQRQQLQEESSHVQQLQQLQPGSQAPPPKSSPSQSSLSNISNINSAPRIKSPTPQEILQRFQKQ

Test [1] has as its target B2. Put plainly: affinity purification with mass spectrometry.
For test [2], the target named is Tra1 (S. cerevisiae, UniProt P38811 1-3744). Put plainly: cryo-EM structure.
In test [3] the target is B2. Put plainly: cryo-EM structure.

Tra1, sequence (P38811 whole entry): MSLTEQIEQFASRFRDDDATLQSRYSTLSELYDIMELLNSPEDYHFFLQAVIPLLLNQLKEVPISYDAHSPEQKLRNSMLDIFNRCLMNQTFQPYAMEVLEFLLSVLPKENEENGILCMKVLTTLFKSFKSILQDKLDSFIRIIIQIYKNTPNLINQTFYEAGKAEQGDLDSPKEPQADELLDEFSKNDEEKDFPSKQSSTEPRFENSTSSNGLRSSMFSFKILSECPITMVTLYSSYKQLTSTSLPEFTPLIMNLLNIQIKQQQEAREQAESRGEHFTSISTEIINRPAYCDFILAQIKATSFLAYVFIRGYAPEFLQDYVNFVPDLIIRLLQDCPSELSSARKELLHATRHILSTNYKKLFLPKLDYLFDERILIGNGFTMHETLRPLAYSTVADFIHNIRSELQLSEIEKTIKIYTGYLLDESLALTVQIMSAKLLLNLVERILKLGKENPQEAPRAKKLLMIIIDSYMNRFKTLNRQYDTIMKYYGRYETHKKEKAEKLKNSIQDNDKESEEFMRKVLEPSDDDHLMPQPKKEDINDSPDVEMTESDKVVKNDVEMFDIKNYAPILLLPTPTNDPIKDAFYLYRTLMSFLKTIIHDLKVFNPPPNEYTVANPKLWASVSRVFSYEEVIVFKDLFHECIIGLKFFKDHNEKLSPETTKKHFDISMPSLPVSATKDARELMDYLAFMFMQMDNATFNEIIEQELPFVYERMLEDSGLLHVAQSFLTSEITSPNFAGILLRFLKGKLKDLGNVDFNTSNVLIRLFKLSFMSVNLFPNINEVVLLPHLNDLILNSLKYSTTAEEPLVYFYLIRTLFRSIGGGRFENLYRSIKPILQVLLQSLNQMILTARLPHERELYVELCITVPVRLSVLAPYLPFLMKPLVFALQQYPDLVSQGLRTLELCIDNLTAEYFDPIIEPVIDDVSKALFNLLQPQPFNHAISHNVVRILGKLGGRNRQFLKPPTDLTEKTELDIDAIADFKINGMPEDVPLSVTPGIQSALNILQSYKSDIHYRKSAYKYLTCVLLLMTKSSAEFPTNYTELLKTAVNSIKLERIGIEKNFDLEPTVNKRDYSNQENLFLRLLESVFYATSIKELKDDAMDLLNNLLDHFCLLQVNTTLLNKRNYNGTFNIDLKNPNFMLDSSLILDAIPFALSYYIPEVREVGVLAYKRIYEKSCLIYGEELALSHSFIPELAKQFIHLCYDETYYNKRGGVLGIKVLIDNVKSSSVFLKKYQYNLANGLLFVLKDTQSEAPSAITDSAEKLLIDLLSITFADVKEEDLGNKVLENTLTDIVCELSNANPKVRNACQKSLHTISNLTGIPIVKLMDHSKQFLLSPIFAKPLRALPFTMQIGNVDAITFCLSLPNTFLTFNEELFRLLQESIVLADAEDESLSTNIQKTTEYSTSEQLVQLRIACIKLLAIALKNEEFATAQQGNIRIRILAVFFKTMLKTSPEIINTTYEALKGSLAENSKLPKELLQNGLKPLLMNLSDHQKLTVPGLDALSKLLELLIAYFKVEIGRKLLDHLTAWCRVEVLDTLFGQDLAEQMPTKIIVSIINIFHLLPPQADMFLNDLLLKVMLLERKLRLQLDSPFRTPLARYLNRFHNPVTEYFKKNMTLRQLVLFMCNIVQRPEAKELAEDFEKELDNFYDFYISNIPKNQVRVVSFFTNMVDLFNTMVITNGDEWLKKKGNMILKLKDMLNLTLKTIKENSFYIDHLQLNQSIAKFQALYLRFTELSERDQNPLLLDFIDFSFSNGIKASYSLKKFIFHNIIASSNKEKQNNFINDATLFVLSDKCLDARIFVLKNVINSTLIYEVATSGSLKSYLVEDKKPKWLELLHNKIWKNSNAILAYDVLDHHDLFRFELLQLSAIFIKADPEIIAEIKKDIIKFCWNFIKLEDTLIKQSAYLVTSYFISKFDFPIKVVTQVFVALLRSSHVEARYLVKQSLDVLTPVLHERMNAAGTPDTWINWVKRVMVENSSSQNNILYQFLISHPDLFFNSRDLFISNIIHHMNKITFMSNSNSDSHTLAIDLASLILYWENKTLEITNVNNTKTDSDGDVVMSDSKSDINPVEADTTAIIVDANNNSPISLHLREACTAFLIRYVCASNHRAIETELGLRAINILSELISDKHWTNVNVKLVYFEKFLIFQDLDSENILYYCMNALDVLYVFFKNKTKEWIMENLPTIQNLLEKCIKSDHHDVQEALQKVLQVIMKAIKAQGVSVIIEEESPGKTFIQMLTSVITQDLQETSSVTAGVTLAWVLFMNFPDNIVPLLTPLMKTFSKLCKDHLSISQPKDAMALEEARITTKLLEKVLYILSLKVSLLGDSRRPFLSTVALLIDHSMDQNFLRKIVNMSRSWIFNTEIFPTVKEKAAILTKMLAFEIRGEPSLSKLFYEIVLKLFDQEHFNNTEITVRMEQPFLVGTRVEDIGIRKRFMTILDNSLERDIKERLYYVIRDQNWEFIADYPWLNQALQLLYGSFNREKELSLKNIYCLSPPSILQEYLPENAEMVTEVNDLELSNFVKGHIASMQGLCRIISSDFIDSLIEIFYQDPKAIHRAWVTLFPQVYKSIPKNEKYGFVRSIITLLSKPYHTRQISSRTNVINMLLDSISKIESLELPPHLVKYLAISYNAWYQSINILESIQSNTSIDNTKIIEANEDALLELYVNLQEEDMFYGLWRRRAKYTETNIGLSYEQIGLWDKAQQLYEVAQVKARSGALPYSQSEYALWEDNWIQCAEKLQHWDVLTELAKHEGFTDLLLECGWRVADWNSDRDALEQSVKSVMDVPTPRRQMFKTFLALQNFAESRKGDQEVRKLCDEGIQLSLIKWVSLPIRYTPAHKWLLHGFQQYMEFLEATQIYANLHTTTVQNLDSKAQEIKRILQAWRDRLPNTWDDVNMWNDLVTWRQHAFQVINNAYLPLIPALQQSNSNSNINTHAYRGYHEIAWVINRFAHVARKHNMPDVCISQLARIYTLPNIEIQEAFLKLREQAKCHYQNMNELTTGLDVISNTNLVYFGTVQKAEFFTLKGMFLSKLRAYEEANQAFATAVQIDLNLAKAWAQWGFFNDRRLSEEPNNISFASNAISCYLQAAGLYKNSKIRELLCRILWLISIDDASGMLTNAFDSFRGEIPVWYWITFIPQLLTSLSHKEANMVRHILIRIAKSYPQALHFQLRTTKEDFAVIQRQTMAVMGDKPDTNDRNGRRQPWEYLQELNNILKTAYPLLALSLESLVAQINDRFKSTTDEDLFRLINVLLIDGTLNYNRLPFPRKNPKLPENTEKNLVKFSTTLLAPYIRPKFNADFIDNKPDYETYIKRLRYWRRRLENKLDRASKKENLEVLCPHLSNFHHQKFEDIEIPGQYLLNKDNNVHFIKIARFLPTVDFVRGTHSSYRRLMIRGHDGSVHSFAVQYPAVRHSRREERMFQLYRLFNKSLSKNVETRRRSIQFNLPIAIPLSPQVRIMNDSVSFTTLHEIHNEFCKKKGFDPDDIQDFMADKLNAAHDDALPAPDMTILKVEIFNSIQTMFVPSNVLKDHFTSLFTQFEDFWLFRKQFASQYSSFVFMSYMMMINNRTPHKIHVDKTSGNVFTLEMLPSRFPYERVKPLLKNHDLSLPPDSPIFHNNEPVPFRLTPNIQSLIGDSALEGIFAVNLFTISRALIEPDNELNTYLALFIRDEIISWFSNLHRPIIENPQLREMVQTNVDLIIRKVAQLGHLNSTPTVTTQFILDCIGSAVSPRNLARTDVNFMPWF

B1: Epl1 with a TAP tag fused to the C-terminus (natural protein)
chain: MPTPSNAIEINDGSHKSGRSTRRSGSRSAHDDGLDSFSKGDSGAGASAGSSNSRFRHRKISVKQHLKIYLPNDLKHLDKDELQQREVVEIETGVEKNEEKEVHLHRILQMGSGHTKHKDYIPTPDASMTWNEYDKFYTGSFQETTSYIKFSATVEDCCGTNYNMDERDETFLNEQVNKGSSDILTEDEFEILCSSFEHAIHERQPFLSMDPESILSFEELKPTLIKSDMADFNLRNQLNHEINSHKTHFITQFDPVSQMNTRPLIQLIEKFGSKIYDYWRERKIEVNGYEIFPQLKFERPGEKEEIDPYVCFRRREVRHPRKTRRIDILNSQRLRALHQELKNAKDLALLVAKRENVSLNWINDELKIFDQRVKIKNLKRSLNISGEDDDLINHKRKRPTIVTVEQREAELRKAELKRAAAAAAAAKAKNNKRNNQLEDKSSRLTKQQQQQLLQQQQQQQQNALKTENGKQLANASSSSTSQPITSHVYVKLPSSKIPDIVLEDVDALLNSKEKNARKFVQEKMEKRKIEDADVFFNLTDDPFNPVFDMSLPKNFSTSNVPFASIASSKFQIDRSFYSSHLPEYLKGISDDIRIYDSNGRSRNKDNYNLDTKRIKKTELYDPFQENLEIHSREYPIKFRKRVGRSNIKYVDRMPNFTTSSTKSACSLMDFVDFDSIEKEQYSREGSNDTDSINVYDSKYDEFVRLYDKWKYDSPQNEYGIKFSDEPARLNQISNDTQVIRFGTMLGTKSYEQLREATIKYRRDYITRLKQKHIQHLQQQQQQQQQQQQQAQQQKQKSQNNNSNSSNSLKKLNDSLINSEAKQNSSITQKNSS
For B1, the binding result in test [1] is listed as “binds”.

As to B2, the binding result in test [2] is on record as “binds”.

B3: Eaf2/Swc4 (natural protein)
chain: MSSSDIFDVLNIKQKSRSPTNGQVSVPSSSAANRPKPQVTGMQRELFNLLGENQPPVVIKSGNNFKEKMLSTSKPSPWSFVEFKANNSVTLRHWVKGSKELIGDTPKESPYSKFNQHLSIPSFTKEEYEAFMNENEGTQKSVESEKNHNENFTNEKKDESKNSWSFEEIEYLFNLCKKYDLRWFLIFDRYSYNNSRTLEDLKEKFYYTCRNYFKASDPSNPLLSSLNFSAEKEIERKKYLQRLLSRSAAEIAEEEALVVESKKFEMAAKRTLAERESLLRLLDSPHSDQTITQYLTSQGMSQLYNALLADKTRKRKHDLNIPENPWMKQQQQFAQHRQLQQLNVKKSEVKENLSPKKTKRQRQEMQTALKRKSESAYAEQLLKDFNSDERKALGVITHGEKLSPGVYLRSTKLSTFKPALQNKILAILQELSLPSRPVMPSFDVMERQEELLKKINTLIDLKKHVDKYEAGMSITK
As for B3, the binding result in test [3] and in test [2] was “binds” each time.
